Laboratory results: patent publication US20210213055A1 (Stanford University, published 2021)
Ends that are not written are not given here.

Key:
[1] = target: T1, Siglec-10 expressed on human donor-derived macrophages (human, UniProt Q96LC7 17-697); test: cell-based or functional assay
T1 sequence (looked up): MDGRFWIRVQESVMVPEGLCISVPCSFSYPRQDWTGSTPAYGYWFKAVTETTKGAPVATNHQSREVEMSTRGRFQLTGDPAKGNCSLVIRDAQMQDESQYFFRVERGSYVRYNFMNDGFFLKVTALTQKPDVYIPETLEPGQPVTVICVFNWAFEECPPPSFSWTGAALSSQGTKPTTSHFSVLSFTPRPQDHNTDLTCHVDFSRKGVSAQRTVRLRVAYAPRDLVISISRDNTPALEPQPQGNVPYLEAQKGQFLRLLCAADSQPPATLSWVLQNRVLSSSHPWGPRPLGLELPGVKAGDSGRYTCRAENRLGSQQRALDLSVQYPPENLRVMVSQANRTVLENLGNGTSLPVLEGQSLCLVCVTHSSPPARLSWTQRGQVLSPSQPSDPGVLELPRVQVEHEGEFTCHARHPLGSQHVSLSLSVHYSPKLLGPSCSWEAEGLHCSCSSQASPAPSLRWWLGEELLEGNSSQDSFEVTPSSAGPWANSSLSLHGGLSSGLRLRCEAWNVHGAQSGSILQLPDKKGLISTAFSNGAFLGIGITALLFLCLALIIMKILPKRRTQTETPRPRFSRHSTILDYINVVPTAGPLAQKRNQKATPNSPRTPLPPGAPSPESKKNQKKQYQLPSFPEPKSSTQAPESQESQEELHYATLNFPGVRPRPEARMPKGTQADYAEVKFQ

recombinant Siglec5-Fc = target: T2, recombinant Siglec5-Fc (human, UniProt O15389 17-434, limits assumed); test: flow cytometry, Fc-fusion on MCF-7 cells, anti-human Fc detection
T2 construct: Bought reagent; not shown: human Fc
T2 sequence (looked up): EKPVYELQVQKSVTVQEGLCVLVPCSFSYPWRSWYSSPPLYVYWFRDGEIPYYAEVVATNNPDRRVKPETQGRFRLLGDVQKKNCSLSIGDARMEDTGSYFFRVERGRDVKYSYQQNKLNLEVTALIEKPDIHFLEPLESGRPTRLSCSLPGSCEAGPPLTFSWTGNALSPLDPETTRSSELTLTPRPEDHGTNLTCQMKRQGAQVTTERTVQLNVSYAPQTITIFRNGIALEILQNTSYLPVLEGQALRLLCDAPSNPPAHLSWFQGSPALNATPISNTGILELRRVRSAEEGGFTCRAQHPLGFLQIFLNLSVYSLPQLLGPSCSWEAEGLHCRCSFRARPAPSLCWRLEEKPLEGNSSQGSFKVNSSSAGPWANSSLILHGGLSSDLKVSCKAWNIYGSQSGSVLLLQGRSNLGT
Description: Siglec10 has been reported to interact with the highly sialylated form of CD24. […] Indeed, we observed that CD24 deletion alone is insufficient to completely abrogate Siglec-10-Fc binding in the presence of surface sialylation (FIG. 15a,b).
Neuraminidase treatment and recombinant Siglec binding assay. MCF-7 cells were treated with either neuraminidase (from Vibrio cholerae, Roche) (1×10⁶ cells/100 U/mL) or neuraminidase that was heat inactivated for 15 min at 95° C. prior to incubation for 1 h at 37° C. in serum-free medium, after which reactions were quenched with serum prior to analysis. Recombinant Siglecs (10, 5, and 9) were purchased as human Fc-fusion proteins from R&D Systems. Binding of recombinant Siglecs versus human IgG1 control was assayed at a concentration of 1×10⁵ cells/1 mg/mL at 37° C. for 1 h, in the absence of EDTA. Cells were stained with a fluorescently-conjugated anti-human Fc antibody (Biolegend) to enable the measurement of recombinant Siglec binding by flow cytometry.

B1: CD24 expressed on human cancer cells (MCF-7 and other CD24+ cells) (ligand, UniProt P25063 27-59, looked up)
chain: SETTTGTSSNSSQSTSNSGLAPNPTNATTKAAG
modifications: also: heavily glycosylated, sialylated, GPI-anchored
notes: whole, on cells; also called Small Cell Lung Carcinoma Cluster 4 Antigen
With B1 the “phagocytosis of CD24-expressing human tumors” value [1] was ≤ 13 fold and the binding result (recombinant Siglec5-Fc) was “no binding (tested: 1×10^5 cells/1 mg/mL)”.
